The target in assay [1] is T1, recombinant human CD38 extracellular domain protein (ACROBiosystems, Cat #CD8-H5224) (human, UniProt P28907 43-300).
T1 construct: Bought protein; also called recombinant human CD38 protein
Kind of assay: ELISA, plate coated with recombinant human CD38 extracellular domain, HRP anti-human kappa detection, chemiluminescence (RLU). Background: In an ELISA, binding on a coated surface is turned into a signal by an enzyme label.

Assay [2] deals with cell surface human CD38 on NCI-H929 myeloma cells (human, UniProt P28907 1-300). Kind of assay: flow cytometry on NCI-H929 cells, AF488 anti-human kappa secondary antibody, median FL-1. A general note: In flow cytometry, cells or beads pass a laser one at a time.
For assay [3], the target named is T2, recombinant cynomolgus monkey CD38 extracellular domain protein (ACROBiosystems) (cynomolgus monkey, UniProt Q5VAN0 44-301).
T2 construct: Bought extracellular domain protein; also called cyno CD38; recombinant cyno CD38
Kind of assay: ELISA, plate coated with recombinant cynomolgus CD38 extracellular domain, HRP anti-human kappa detection, chemiluminescence (RLU).

Assay [4] concerns the target T1, recombinant human CD38 extracellular …. Description: ELISA, plate coated with 1 ug/mL recombinant human CD38, HRP anti-human kappa detection, chemiluminescence (RLU).
Assay [5] concerns the target T3, mouse CD38 (ACROBiosystems, CD8-M5223) (mouse, UniProt P56528 45-304).
T3 construct: Bought recombinant protein, coated on the ELISA plate
T3 sequence (looked up): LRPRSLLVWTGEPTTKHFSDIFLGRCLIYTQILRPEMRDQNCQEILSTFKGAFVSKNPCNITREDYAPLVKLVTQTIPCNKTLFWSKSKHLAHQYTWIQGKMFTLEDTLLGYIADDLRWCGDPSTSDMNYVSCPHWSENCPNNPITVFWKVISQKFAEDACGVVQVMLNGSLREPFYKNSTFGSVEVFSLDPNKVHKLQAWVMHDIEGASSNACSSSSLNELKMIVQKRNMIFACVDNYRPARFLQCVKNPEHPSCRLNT
Description: ELISA, antigen coated at 1 µg/mL, serial dilutions of IgM.

Assay [6] concerns the target T4, human CD157 protein (SinoBiological, 10060-H08H) (human, UniProt Q10588 33-292).
T4 construct: Bought recombinant protein, coated on the ELISA plate
T4 sequence (looked up): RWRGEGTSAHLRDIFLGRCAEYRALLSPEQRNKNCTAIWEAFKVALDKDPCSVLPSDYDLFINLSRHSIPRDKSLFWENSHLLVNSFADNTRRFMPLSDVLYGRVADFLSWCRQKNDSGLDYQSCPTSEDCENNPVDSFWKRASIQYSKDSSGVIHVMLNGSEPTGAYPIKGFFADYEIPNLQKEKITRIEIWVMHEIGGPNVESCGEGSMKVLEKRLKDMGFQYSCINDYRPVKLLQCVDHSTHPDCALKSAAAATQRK
The assay is described as above.

B1: IgM F-1 (bispecific antibody)
VH: EVQLQQSGAEFVRPGASVKLSCTASGFNIKDSLMHWVKQRPEQGLEWIGWIDPEDDKTKYAPKFQDEATLTADTSSNTAYLHLSSLTSEDTAIYYCARRFLRGFAYWGQGTLVTVSA
VL: DIVMTQSPSSLSVSAGEKVTMSCKSSQSLLNSGNQKNYLAWYQQKPGQPPKLLIYGASTRESGVPDRFTGSGSGTDFTLTISSVQAEDLAVYYCQNDHSYPYTFGGGTKLEIK
chain: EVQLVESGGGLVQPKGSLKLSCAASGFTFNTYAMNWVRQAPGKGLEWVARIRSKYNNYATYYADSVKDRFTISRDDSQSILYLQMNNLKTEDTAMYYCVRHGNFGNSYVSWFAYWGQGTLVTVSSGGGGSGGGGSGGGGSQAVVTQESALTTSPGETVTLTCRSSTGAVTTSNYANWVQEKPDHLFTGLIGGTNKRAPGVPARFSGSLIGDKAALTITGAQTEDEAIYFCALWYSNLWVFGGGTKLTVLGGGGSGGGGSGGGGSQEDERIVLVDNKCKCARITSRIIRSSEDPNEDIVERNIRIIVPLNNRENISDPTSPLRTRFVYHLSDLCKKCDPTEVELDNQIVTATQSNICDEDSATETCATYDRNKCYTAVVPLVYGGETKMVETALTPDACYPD
notes: Constant regions not specified; also called chimeric CD38 × CD3 IgM antibody of Clone F
With B1, the binding result in assay [1], in assay [2] and in assay [3] was “binds” each time.

B2: IgM H-1 (bispecific antibody)
VH: QVPLHQSGPELIKPGASLKISCKASDSAFNNSWMNWVRQRPGKGLEWIGWIYPGDDDTKYNGKFMGKATLTADKSSGTAYMQLSSLTSEDSAVYFCARGRWGMDYWGQGTSVTVSS
VL: DIVMTQFHNFMSTSVGDRVNINCKASQNVVTAVAWYQQKPGQSPKLLIYWASTRHTGVPDRFTGSGSGTDFTLTISNVQSEDLADYFCQQYSNYPFTFGSGTKLEIK
chain: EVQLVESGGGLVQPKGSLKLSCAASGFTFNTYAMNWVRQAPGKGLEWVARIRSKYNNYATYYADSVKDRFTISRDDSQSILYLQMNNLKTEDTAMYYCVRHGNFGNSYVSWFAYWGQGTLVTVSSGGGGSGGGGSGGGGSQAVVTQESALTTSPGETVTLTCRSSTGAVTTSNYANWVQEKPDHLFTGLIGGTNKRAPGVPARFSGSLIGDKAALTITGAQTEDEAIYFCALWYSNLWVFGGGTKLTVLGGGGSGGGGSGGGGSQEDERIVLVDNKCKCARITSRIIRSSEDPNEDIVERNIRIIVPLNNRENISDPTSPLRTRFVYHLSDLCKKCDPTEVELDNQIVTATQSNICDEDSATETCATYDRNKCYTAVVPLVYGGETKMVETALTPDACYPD
notes: Constant regions not specified; also called chimeric CD38 × CD3 IgM antibody of Clone H
In the case of B2, the binding result in assay [1], in assay [2] and in assay [3] was “binds” each time.

B3: IgM B-2 (bispecific antibody)
VH: QVQLVQSGAEVKKPGSSVKVSCKASGYTFTSYNMHWVRQAPGQGLEWMGYIYPGNGGTNYNQKFKGRVTITADESTSTAYMELSSLRSEDTAVYYCARGASMITTGAWFAYWGQGTLVTVSS
VL: DIQMTQSPSSVSASVGDRVTITCRASESLDTYGNSFMYWYQQKPGKAPKLLIYLASSLESGVPSRFSGSGSGTDFTLTISSLQPEDFATYYCHQNHEDPWTFGQGTKVEIK
chain: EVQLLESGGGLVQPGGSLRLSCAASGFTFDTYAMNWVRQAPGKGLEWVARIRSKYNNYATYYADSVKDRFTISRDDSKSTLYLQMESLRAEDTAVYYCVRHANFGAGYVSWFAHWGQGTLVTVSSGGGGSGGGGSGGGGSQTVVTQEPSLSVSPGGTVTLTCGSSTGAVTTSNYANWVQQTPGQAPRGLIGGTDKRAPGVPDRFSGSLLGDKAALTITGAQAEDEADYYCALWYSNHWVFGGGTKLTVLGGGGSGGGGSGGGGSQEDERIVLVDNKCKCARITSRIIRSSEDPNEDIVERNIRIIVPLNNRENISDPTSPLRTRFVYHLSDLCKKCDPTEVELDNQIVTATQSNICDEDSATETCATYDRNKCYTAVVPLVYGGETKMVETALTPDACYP
notes: IgM and light chain constant regions not specified; also called humanized CD38 × CD3 IgM antibody
On to B3, for which the binding result in assay [4] is “binds”; in assay [5] it was “no binding”; in assay [6], “no binding”.

B4: IgM B-4 (bispecific antibody)
VH: QVQLVQSGAEVKKPGSSVKVSCKASGYTFTSYNMHWVRQAPGQGLEWMGYIYPGNGGTNYNQKFKGRVTITADESTSTAYMELSSLRSEDTAVYYCARGASMITTGAWFAYWGQGTLVTVSS
VL: DIQMTQSPSSVSASVGDRVTITCRASESLDTYGNSFMYWYQQKPGKAPKLLIYLASSLESGVPSRFSGSGSGTDFTLTISSLQPEDFATYYCHQNHEDPWTFGQGTKVEIK
chain: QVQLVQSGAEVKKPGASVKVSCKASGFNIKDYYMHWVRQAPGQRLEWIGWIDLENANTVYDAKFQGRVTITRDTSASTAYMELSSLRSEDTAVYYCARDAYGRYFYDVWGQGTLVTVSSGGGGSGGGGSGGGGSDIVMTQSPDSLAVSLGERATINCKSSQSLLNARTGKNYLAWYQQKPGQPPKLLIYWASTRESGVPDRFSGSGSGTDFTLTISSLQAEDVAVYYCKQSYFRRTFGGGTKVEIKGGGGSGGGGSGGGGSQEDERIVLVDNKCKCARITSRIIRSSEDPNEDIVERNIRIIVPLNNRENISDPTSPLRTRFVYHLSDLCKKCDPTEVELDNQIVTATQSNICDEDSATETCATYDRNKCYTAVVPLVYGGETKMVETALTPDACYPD
notes: Constant regions not specified; also called humanized CD38 × CD3 IgM antibody
Take B4: the binding result in assay [4] is reported as “binds”; in assay [5] it was “no binding”; in assay [6] it was “no binding”.

B5: IgM C-1 (bispecific antibody)
VH: EVQLQQSGTVLARPGASVKMSCKASGYTFTRYWMHWVKQRPGQDLEWIGGFYPGNSDTRYNQKFKDKAKLTAVTSTSTAYMELSSLTNEDSAVYYCTRGDRHDEGFAYWGQGTLVTVSA
VL: DIQMTQSPASLSASVGETVTITCRASGNIHNYLAWYQQKQGKSPQLLVYNAKTLPDGVPSRFSGSGSGTQYSLKINSLQPEDFGTYYCQNIWTNYTFGGGTKLEIK
chain: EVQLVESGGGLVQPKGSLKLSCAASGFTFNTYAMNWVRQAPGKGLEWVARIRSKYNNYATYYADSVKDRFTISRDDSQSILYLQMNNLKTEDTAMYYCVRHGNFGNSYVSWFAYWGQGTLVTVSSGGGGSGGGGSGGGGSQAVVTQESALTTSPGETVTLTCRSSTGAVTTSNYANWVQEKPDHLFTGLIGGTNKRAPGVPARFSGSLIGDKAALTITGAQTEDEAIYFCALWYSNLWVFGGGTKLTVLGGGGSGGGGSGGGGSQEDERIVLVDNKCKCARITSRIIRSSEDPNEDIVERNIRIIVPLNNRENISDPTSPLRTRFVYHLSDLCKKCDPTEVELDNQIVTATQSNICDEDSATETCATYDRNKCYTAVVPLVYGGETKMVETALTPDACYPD
notes: Constant regions not specified; also called chimeric CD38 × CD3 IgM antibody of Clone C
In the case of B5, the binding result in assay [1], in assay [2] and in assay [3] was “binds” each time.

B6: IgM B-1 (bispecific antibody)
VH: QAYLQQSGAEVVRSGASVKMSCKAAGYTFTSYNMHWVKQTPGQGLEWIGYIYPGNGGTNYNQKFKGKATLTADTSSTTAYMQISSLTSEDSAVYFCARGASMITTGAWFAYWGQGTLVTVSA
VL: NIVLTQSPASLAVSLGQRATISCRASESLDTYGNSFMYWYQQKPGQPPKLLIYLASSLESGVPARFSGSGSRTDFTLTIDPVEADDAATYYCHQNHEDPWTFGGGTKLEIK
chain: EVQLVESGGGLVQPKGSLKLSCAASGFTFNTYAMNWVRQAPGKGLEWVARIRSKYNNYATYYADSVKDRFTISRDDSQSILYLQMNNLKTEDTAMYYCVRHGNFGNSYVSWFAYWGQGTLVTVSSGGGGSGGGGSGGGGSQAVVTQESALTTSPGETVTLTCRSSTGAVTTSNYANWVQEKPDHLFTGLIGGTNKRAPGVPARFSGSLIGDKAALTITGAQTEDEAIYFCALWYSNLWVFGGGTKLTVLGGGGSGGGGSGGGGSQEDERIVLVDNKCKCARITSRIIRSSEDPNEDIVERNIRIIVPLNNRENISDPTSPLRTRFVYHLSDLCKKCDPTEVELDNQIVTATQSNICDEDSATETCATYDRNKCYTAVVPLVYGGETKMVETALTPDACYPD
notes: Constant regions not specified; also called chimeric CD38 × CD3 IgM antibody of Clone B
With B6, the binding result in assay [1], in assay [2] and in assay [3] was “binds” throughout.

B7: IgM E-1 (bispecific antibody)
VH: QVQLQQSGAELVRPGTSVKMSCKAAGYTFTNHWIEWVKQRPGHGLEWIGDIFPGGGYTDYNEKFKGKATLTADTSSSTAYMQLSSLTSEDSAIYYCARGRDLAMDYWGQGTSVTVSS
VL: DIQMNQSPSSLSASLGDTITITCHASQNINVWLGWYQQKPGNIPKLLIYKASNLHTGVPSRFSGSGSGTGFTLTISSLQPEDIATYYCQQGQSYPYTFGGGTKLEIK
chain: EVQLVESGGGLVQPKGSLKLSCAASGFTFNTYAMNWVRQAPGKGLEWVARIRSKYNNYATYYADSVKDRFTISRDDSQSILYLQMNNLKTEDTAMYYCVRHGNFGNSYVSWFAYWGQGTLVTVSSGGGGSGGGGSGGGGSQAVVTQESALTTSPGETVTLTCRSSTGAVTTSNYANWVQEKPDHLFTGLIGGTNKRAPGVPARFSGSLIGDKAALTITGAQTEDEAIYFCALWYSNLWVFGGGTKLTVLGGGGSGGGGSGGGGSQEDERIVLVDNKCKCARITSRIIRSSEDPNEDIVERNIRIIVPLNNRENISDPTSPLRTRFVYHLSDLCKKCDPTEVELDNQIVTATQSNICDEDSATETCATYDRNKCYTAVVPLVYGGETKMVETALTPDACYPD
notes: Constant regions not specified; also called chimeric CD38 × CD3 IgM antibody of Clone E
Consider B7, for which the binding result in assay [1], in assay [2] and in assay [3] was “binds” throughout.

B8: IgM A-1 (bispecific antibody)
VH: QVQLQQSGAELVKPGASVKISCKASGYTFSNYWIEWVKQRPGLGLEWIGDILPGSGTTNYNEKFKGKATFTADTSSNTAYMQLSSLTSEDSAVYYCAGYGNYLWFTYWGQGTLVTVSA
VL: DIQMNQSPSSLSASLGDTITITCHASQNINVWLSWYQQKPGNIPKLLIYKASNLHTGVPSRFSGSGSGTGFTLTISSLQPEDIATYYCQQGQSYPYTFGGGTKLEIK
chain: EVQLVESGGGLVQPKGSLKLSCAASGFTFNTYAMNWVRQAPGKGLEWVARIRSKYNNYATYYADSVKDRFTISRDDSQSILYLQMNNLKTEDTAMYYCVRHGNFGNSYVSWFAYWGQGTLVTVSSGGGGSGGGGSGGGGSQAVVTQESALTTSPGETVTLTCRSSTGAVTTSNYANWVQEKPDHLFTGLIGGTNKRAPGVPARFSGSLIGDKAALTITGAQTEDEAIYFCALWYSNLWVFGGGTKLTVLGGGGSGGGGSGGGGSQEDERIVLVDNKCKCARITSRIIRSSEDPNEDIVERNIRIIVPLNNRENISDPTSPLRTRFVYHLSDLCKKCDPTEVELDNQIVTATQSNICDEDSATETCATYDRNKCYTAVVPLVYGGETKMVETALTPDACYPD
notes: The IgM heavy chain constant region and the light chain constant region used are not specified; also called chimeric CD38 × CD3 IgM antibody of Clone A
Usually EC50 (read off the curve) stands for the concentration that produces a half-maximal response. For B8, the “EC50 (read off the curve)” value in assay [1] is about 0.2 µg/mL; in assay [2], about 2 nM; in assay [3], about 0.2 µg/mL.

B9: IgM E-2 (bispecific antibody)
VH: QVQLVQSGAEVKKPGSSVKVSCKASGYTFTNHWIEWVRQAPGQGLEWMGDIFPGGGYTDYNEKFKGRVTITADESTSTAYMELSSLRSEDTAVYYCARGRDLAMDYWGQGTLVTVSS
VL: DIQMTQSPSSLSASVGDRVTITCHASQNINVWLGWYQQKPGKAPKLLIYKASNLHTGVPSRFSGSGSGTDFTLTISSLQPEDFATYYCQQGQSYPYTFGQGTKVEIK
chain: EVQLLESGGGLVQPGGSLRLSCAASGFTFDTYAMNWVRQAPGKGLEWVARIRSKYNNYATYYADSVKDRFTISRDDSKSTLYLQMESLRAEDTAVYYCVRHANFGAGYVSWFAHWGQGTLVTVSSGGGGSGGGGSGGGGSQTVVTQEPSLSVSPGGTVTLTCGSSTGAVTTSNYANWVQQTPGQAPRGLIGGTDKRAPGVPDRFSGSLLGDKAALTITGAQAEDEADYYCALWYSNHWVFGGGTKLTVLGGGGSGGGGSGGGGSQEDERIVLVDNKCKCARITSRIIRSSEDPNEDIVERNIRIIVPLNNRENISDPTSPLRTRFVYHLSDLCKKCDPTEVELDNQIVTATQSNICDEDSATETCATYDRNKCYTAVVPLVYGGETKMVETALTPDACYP
notes: as for B4
With B9, the binding result is on record as “binds” in assay [4], “no binding” in assay [5] and “no binding” in assay [6].

B10: IgM E-4 (bispecific antibody)
VH: QVQLVQSGAEVKKPGSSVKVSCKASGYTFTNHWIEWVRQAPGQGLEWMGDIFPGGGYTDYNEKFKGRVTITADESTSTAYMELSSLRSEDTAVYYCARGRDLAMDYWGQGTLVTVSS
VL: DIQMTQSPSSLSASVGDRVTITCHASQNINVWLGWYQQKPGKAPKLLIYKASNLHTGVPSRFSGSGSGTDFTLTISSLQPEDFATYYCQQGQSYPYTFGQGTKVEIK
chain: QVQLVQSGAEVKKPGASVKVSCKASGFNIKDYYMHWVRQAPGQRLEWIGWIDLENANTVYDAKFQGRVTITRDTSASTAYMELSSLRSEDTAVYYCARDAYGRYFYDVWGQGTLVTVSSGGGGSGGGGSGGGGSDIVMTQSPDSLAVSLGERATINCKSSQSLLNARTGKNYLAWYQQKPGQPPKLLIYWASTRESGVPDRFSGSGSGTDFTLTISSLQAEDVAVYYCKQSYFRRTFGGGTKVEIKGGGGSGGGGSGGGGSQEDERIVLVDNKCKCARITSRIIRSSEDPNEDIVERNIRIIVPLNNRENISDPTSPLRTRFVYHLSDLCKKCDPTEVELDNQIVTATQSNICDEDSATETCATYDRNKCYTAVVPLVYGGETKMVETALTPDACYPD
notes: as for B4
Regarding B10, the binding result in assay [4] is listed as “binds”; in assay [5], “no binding”; in assay [6], “no binding”.

B11: IgM OKT10-2 (bispecific antibody)
VH: EVQLLESGGGLVQPGGSLRLSCAASGFDFSRSWMNWVRQAPGKGLEWVSEINPDSSTINYATSLKDRFTISRDNSKNTLYLQMNSLRAEDTAVYYCARYGNWFPYWGQGTLVTVSS
VL: DIQMTQSPSSLSASVGDRVTITCKASQNVDTNVAWYQQKPGKAPKALIYSASYRYSGVPSRFSGSGSGTDFTLTISSLQPEDFATYYCQQYDSYPLTFGQGTKVEIK
chain: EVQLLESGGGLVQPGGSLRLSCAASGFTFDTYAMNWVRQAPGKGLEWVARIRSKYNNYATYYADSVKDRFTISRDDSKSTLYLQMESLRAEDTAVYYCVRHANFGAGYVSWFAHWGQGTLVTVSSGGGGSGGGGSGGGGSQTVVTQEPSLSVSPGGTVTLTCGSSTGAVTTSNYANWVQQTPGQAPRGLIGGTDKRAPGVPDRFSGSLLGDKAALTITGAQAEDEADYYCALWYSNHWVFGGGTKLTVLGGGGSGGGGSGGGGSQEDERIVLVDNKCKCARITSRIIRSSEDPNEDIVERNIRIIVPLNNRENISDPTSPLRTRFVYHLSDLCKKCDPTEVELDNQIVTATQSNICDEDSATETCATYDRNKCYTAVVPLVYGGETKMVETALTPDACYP
notes: as for B4
As for B11, the “EC50 (read off the curve)” value in assay [4] was about 0.3 µg/mL. In addition, the binding result in assay [5] and in assay [6] was “no binding” each time.

B12: IgM OKT10-4 (bispecific antibody)
VH: EVQLLESGGGLVQPGGSLRLSCAASGFDFSRSWMNWVRQAPGKGLEWVSEINPDSSTINYATSLKDRFTISRDNSKNTLYLQMNSLRAEDTAVYYCARYGNWFPYWGQGTLVTVSS
VL: DIQMTQSPSSLSASVGDRVTITCKASQNVDTNVAWYQQKPGKAPKALIYSASYRYSGVPSRFSGSGSGTDFTLTISSLQPEDFATYYCQQYDSYPLTFGQGTKVEIK
chain: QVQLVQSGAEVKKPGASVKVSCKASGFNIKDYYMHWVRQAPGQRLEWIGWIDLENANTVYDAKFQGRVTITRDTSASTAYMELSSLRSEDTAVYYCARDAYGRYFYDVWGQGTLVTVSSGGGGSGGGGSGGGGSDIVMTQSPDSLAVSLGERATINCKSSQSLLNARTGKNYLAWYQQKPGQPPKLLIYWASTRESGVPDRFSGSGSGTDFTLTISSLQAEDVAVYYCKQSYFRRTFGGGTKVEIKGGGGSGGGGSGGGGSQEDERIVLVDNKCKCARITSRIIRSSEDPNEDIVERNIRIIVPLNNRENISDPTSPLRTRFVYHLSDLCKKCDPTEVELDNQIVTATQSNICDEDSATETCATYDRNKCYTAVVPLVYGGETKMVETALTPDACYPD
notes: as for B4
As to B12, the binding result in assay [4] is on record as “binds”; in assay [5], “no binding”; in assay [6], “no binding”.

Source of the values: US20250051473A1 (IGM BIOSCIENCES, published 2025).
